Results on one molecule are retold here after patent publication US20250129156A1 (AKESO BIOPHARMA, published 2025).

For assay [1], the target named is T1, TGF-β1 (human, UniProt P01137 279-390).
T1 construct: Bought protein; also called human TGF-β1; TGF-β1 protein
Briefly: indirect ELISA, TGF-β1 coated at 1 µg/mL.

Assay [2] deals with T1, TGF-β1. Briefly: competition ELISA vs TGF-βRII-His-Biotin 0.01 µg/mL on coated TGF-β1. (In an ELISA, binding on a coated surface is turned into a signal by an enzyme label.)
Another assay has as its target T2, TGF-β2 (UniProt P61812 303-414).
T2 construct: Bought protein; also called TGF-β2 protein
T2 sequence (looked up): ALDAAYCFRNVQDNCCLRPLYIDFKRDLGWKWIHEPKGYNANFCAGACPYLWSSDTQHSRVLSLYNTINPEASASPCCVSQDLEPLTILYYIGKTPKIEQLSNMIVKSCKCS
Kind of assay: indirect ELISA, TGF-β2 coated at 2 µg/mL.

B1: TGF-βRII-mFc (Fc fusion, UniProt P37173 23-159, looked up, not shown: a dimerising Fc or GST)
chain: TIPPHVQKSVNNDMIVTDNNGAVKFPQLCKFCDVRFSTCDNQKSCMSNCSITSICEKPQEVCVAVWRKNDENITLETVCHDPKLPYHDFILEDAASPKCIMKEKKKPGETFFMCSCSSDECNDNIIFSEEYNTSNPD
notes: also called TGF-βR2-mFc
A word on the EC50: it is the concentration giving half of the maximal effect. Regarding B1, the EC50 with TGF-β1 [1] turned out to be 0.356 nM; with TGF-β1 [2] it was 6.47 nM; with TGF-β2, 1.03 nM.
